Measurements taken from a protein production outcome set (Wang et al. 2014).

Assay: label from the status in PepcDB records

| Sequence | protein production |
| --- | --- |
| MKKTWKVFLTLVTALVAVVLVACGQGTASKDNKEAELKKVDFILDWTPNTNHTGLYVAKEKGYFKEAGVDVDLKLPPEESSSDLVINGKAPFAVYFQDYMAKKLEKGAGITAVAAIVEHNTSGIISRKSDNVSSPKDLVGKKYGTWNDPTELAMLKTLVESQGGDFEKVEKVPNNDSNSITPIANGVFDTAWIYYGWDGILAKSQGVDANFMYLKDYVKEFDYYSPVIIANNDYLKDNKEEARKVIQAIKKGYQYAMEHPEEAADILIKNAPELKEKRDFVIESQKYLSKEYASDKEKWGQFDAARWNAFYKWDKENGILKEDLTDKGFTNEFVK | failed |
| MNLNQLDIIVSNVPQVCADLEHILDKKADYANDGFAQFTIGSHCLMLSQNHLVPLENFQSGIIIHIEVEDVDQNYKRLNELGIKVLHGPTVTDWGTESLLVQGPAGLVLDFYRMK | not failed |
| MIYLFLALLSYACTYCLVGLLIQGQLADVAEGLRHRPDAPTPGEYLREVGPRARQARRQYTLIAGSVLAVLACLIASGFG | failed |
| MTSHKPYWPIGVFTSVDAGLGVHLEVAQDLKVPTVQVHAPHPHTRTREHAQAFRAKCDAAGIQVTVIFGGFDGESYADIPTTARTVGLVPLETRASRVAEMKEISDFASWVGCPAIGLHIGFVPESSSPDYSELVRVTQDLLTHAANHGQAVHLETGQESADHLLEFIEDVNRPNLGINFDPANMILYGTGNPIEALRKVARYVRSIHCKDALWAPVNERGKSWGQEVALGTGDVGMEAYLTTLWEIGYRGPLTIEREIPHDPVQQKKDLASALELLTGLRKKIANC | not failed |
| MSRRSNRTINLPAPYLKRIWLDPSQVHDREAYPFCLPIFPDDFELSFDAAITIIVGENGTGKSTILEGIAALAGYDDAGGGKGYMPVDHSDAREKMGGQLSKALRASWLPKITNGWFFRAESFFSVARYLDKAARDAGQVGPDFLSHSHGEGFLRFFEERCQRQGIFIFDEPESALSPARQIEFLKLLRRMDDSRICQVIMATHSPMLMAYPNAKLLRLGKYGLEPVTVEETDHYRLMREFCDDPRGFVEATLAELEHHHHHH | not failed |
| MRKIQFPFCILDVIQRKGVRVLYIIIPIVVLLLIFLFAGYVKAPPNKAAIITGLSKNPRVLLGKSGFKVPFFERVDWLEVGQININVVTEDYIPTKDFINIKVDAIAQVAMEVSNNQVSAVAMRNFLNRKADDVRSMITESLQGNLREIIGTMDLKSICQDKAKFSQEVKQNAEQDMKELGIRILSFNVQNVNDKDGLIDDLGIDNRETIRKTARVAKANADRDVEVASAEAANKASEAKVAAELAIAQRNNDLEIRKAELKIGEDTKKAEADAAYEIQKQTSRKTVEIREQEADIARREKEIELQTKEAEVAEKKLDAEIRKKAEADKYAEMQNADAELYRRQKDAEAQQYEAEKEAAAIRAKGLAEAEAIRQKGLAEAEALDKKAEAMKKYGQAAILEMIVGVLPDIAKSVAEPLSAIDKVTVIGGNSDGVSDLAGNVPIIMGKVMESVKEATGIDMNEIIRAETFEGKTTKNINFTGLDQVGEEIAQGAAQSVSETLQETE | failed |
| MGYDPRISVSKWYEKWMLIYVVHSVKATTLSNYVNGFERVREYIGYMRLIEVRPTHILDMIKGLEEEGYARTTVIQSLSVVRQLFKKAYGGKMIPIDPVADIKLEHHHHHH | not failed |
| YTISEVVAFTGLTAHTLRWYERIGLMPHIDRSHTGQRRYSNRDLDWLAFVGKLRLTGMPVADMVRYAEMVREGDGTYTQRYEILESTRRDVLARIAELQDTLAVLDHKISFYADAGRALTSERSR | failed |
| MSISDNSRDQLGELPAGRPLQSDFDNDLDYPRLGSVTFRRGTLTENQQTMWDEKWPELGRVLEDELIDVDAWFGREGAKTIVEIGSGTGTSTAAMAPLEADTNIVAVELYKPGLAKLMGSVVRGEIDNVRMVRGDGIEVLNRMFADGSLDGIRVYFPDPWPKARHNKRRIIQSGPLNLFAKKLKPGGVLHVATDHADYAEWINELVEVEPLLEYKGWPWEECPQLTDRQVITKFEGKGLEKDHVINEYLWQKVQN | failed |
| MESIGLVEVNSIARGIEAADAMLKAAQVDLLEAKPVCPGKYIVLICGDVAAVQSSVTAGKTMAAHSVLDDFILPNVHPQVLTAISAATPLTLIKALGIIETFSIASLIVAADTAAKTGQVDLVEIRIGMGIGGKSFVTLTGDVASVESSVAAGVMLASERGMLVDKVVIPSPHDHLKRCLC | not failed |
| MHNFEEELTCPICYSIFEDPRVLPCSHTFCRNCLENILQASGNFYIWRPLRIPLKCPNCRSITEIAPTGIESLPVNFALRAIIEKYQQEDHPDIVTCPEHYRQPLNVYCLLDKKLVCGHCLTIGQHHGHPIDDLQSAYLKEKDTPQKLLEQLTDTHWTDLTHLIEKPKEQKSHSEKMIQGDKEAVLQYFKELNDTLEQKKKSFLTALCDVGNLINQEYTPQIERMKEIREQQLELMALTISLQEESPLKFLEKVDDVRQHVQILKQRPLPEVQPVEIYPRVSKILKEEWSRTEIGQIKNVLIPKMKISPKRMSCSWPGTPVYSVAWGPDSEKVLYTAGKQLIIKPLQPNAKVLQWKAHDGIILKVDWNSVNDLILSAGEDCKYKVWDSYGRPLYNSQPHEHPITSVAWAPDGELFAVGSFHTLRLCDKTGWSYALEKPNTGSIFNIAWSIDGTQIAGACGNGHVVFAHVVEQHWEWKNFQVTLTKRRAMQVRNVLNDAVDLLEFRDRVIKASLNYAHLVVSTSLQCYVFSTKNWNTPIIFDLKEGTVSLILQAERHFLLVDGSSIYLYSYEGRFISSPKFPGMRTDILNAQTVSLSNDTIAIRDKADEKIIFLFEASTGKPLGDGKFLSHKNEILEIALDQKGLTNDRKIAFIDKNRDLCITSVKRFGKEEQIIKLGTMVHTLAWNDTCNILCGLQDTRFIVWYYPNTVYVDRDILPKTLYERDASEFSKNPHIVSFVGNQVTIRRADGSLVHISITPYPAILHEYVSSSKWEDAVRLCRFVKEQTMWACLAAMAVANRDMTTAEVAYAAIGEIDKVQYINSIKNLPSKESKMAHILLFSGNIQEAEIVLLQAGLVYQAIQININLYNWERALELAVKYKTHVDTVLAYRQKFLETFGKQETNKRYLHYAEGLQIDWEKIKAKIEMEITKEREQSSSSQSSKSIGLKP | failed |
| MLNTFMFPGQGSQAKGMGGALFDRFADLTAQADAVLGYSIRALCVDDPRDELGRTQFTQPALYVVNALTYYAKCEDSGETPDFLAGHSLGEFNALLAAGCFDFETGLKLVARRAELMSQARDGAMAAIVNASREQIERTLDEHGLVDTAIANDNTPSQLVISGPAHEIARAEALFQHDRVRYLRLNTSGAFHSKFMRPAQQAFAAHLQSFRLADPAIPVISNVSARPYENGRVSEGLAQQIASPVRWCESIRYLLALAAERGEAIEFTELGHGDVLTRLVHTIRRQTPAPAAAATSARARPTPPGEPERPAQQTAAAPRASDSASASLGAAERVAAWNRDYPVGTRVRSSLIHDDVLETRTPATVLFGHRAAVYMKGYNGYFDLAEVTPA | not failed |
| MSLRQVIPIPSPPAKYLLPEVTVLDYGKKCVVIDLDETLVHSSFKPISNADFIVPVEIDGTIHQVYVLKRPHVDEFLQRMGQLFECVLFTASLAKYADPVADLLDRWGVFRARLFRESCVFHRGNYVKDLSRLGRELSKVIIVDNSPASYIFHPENAVPVQSWFDDMTDTELLDLIPFFEGLSREDDEGHHHHHH | not failed |
| MRRFGKWLGRVLLAALCAALVIGLWKGEEIKRLMAVNSLFEPDLIVRNFSNMDAAFLHTPVGEAQTPPSALPDGPKMTLPDGTAAWLAARKVTSLVVLSNGQLVHESYHLGTKAEDRRISWSLAKSYISALTGIVLAQGSIASLDDPVTRYAPRLKGGAYDGATVRNVLNMATGVTFDEDYTDYDSDINRMGRVLALGGLMDDFAAGLTQTFARPGSEWQYVSIDTHVLGMVIRAATGRSVVDLMGAHIITPLGLESTPYYLTDGAGVAFALGGLNMTTRDYARFGQMMAQHGAWNGRQIVPKNWVIDSTTASAPTGPDEYGYGYQWWMPRDARPREYMGRGIYGQYLYINEEQGVVVALTAADAAFRDADVQQQNIALFREIADRVQGDANGKR | failed |
| MDHAAVLALFDRDMREGARPDGPGARIERVPGVVRQVASEHGWNGVVWSGLDEASADAAIAEQQRYFAGLGREFEWKLYGHDLPEDLGRRLRAAGFTAAPEETLMVAEVADLTLDVEPPDGVRIVPVTDRAGVDLVADVHEKAFGTDSTRMRHQLLAQVTDDPDAVVAVVALAGDEPVSAARMELVPGTRFAGLWGGGTVEGERGRGIYRALVAHRAKVAADRGYRYVQVDATSQSRPVLARLGFEPLTTTTPYVSP | not failed |
| MKALASRGTRNHLAGEAAENSVLRDYERRGYHLVRRRWRGRCGEIDLIARSGDEVVFVEVKQSRDFARAAESLGARQMKRLHAAAAEFLAEEPDGQLTPMRFDVALVDGTGRLEIVENAFGHG | failed |
| MTCRPALSDSHPPEPGTPSSPSFGVCGDRPLLRERGQHEVFCGLAGIIWLHRKIQDAFFLIIGSRTCAHLMQSAAGVMIFAEPRFATAVLEEQDLAGLADAQDEIDRVVARLLERRPDIRLLFLVGSCPSEVIKIDLQRAALRLSKVHGARTRVVSYSGSGLETTFTQGEDACLAALVPDLPSAAADEAPDLLVVGTLPDVVEDQFGRLFAEMGIARTAFLPPRRSTALPAIGPKTRFLLAQPFLGDTARCLEARGARRLAAPFPFGVEGTTGWLAAAAQAFGVDDLTFRRVTAPGRERAARALERQRATLEGKRVFFFPESQLEIPLARFLVRELGMEAIEIGTPYLHRAHLAEELALLPATALLSEGQDVDRQLDRCRAARPDLVVCGLGLANPLEAEGITTKWSIELVFSPIHGYEQAGDLAELFARPLLRRALLKV | failed |
| MSSRTVLAPGNDRNSDTHGTLGSGRSSDKGPSWSSRSLGARCRNSIASCPEEQPHVGNYRLLRTIGKGNFAKVKLARHILTGREVAIKIIDKTQLNPSSLQKLFREVRIMKGLNHPNIVKLFEVIETEKTLYLVMEYASAGEVFDYLVSHGRMKEKEARAKFRQIVSAVHYCHQKNIVHRDLKAENLLLDAEANIKIADFGFSNEFTLGSKLDTFCGSPPYAAPELFQGKKYDGPEVDIWSLGVILYTLVSGSLPFDGHNLKELRERVLRGKYRVPFYMSTDCESILRRFLVLNPAKRCTLEQIMKDKWINIGYEGEELKPYTEPEEDFGDTKRIEVMVGMGYTREEIKESLTSQKYNEVTATYLLLGRKTEEGGDRGAPGLALARVRAP | failed |
| MGHHHHHHSHMQPAKEVTKASDGSLLGDLGHTPLSKKEGIKWQRPRLSRQALMRCCLVKWILSSTAPQGSDSSDSELELSTVRHQPEGLDQLQAQTKFTKKELQSLYRGFKNECPTGLVDEDTFKLIYAQFFPQGDATTYAHFLFNAFDADGNGAIHFEDFVVGLSILLRGTVHEKLKWAFNLYDINKDGYITKEEMLAIMKSIYDMMGRHTYPILREDAPAEHVERFFEKMDRNQDGVVTIEEFLEACQKDENIMSSMQLFENVI | failed |
| MLDHVIRGATVVDGTGAPAYTADVGIRDGRIAAVGTVTEPARAGEDAAGLVLAPGFVDPHTHYDAQLFWDPYATPSLNHGVTTVAGGNCGFTLAPLNPDRPQDADYTRRMMSKVEGMSLVALEEGAPWSWHTFGDYLDALEGRIAVNAGFMVGHCALRRYVMGPDAVGGRPTREQLERMLALFHEAMDAGAWGLSTTQSSTHSDGDGQPVASRHARPAELLALARAVGEHEGTQIEAIVAGCLDQFSDAEIDLFVEMSAAAGRPLNWNVLTIDAAVPERVPRQLTASERARKAGGRVVALTMPILTPMNMSLGTFCALNLIPGWGEVLGLPVPERIARLRDPDVRAELLRRADSKEAGVFRRLANFGRYVIGDTYSTANEGLTGRVVNDIAAERGQDPFHCLVEICAADELRTVLWPMPTDNDPDSWALRAETWRHKDVLLGGSDAGAHLDRMCGAPYTTRFLGDCLRGRKLVPLEQAVKMLTDDPARLFGLRDRGRIREGFHADLVLFDPARIDAGKATLVHDLPGDSPRLDSKAIGVTAVWVNGVEAIRDDVVTGAVPGKVLRSGRDTRTVSTR | failed |
| MRGAESLVTLNHKILRPCRKLLIRITKSCPRRHNRHLKLKKASSSSSTASGNKVTKVVALFFLSFHKKKQKKEKMKRLNELRSFSHAVNDQKKKAPKQESSKKVFPSRLTMSWLGQGKGNNNNTQEVPQEHDARRDSTSAFIP | failed |
